Test results taken from patent US20200345810A1, “USE OF ALPHA-1-MICROGLOBULIN FOR PROTECTION OF BONE MARROW CELLS” (GUARD THERAPEUTICS INTERNATIONAL AB, priority 2017, published 2020).

Assays:
[1] = system: Rps19 deficient erythroid precursors; assay: Drug screen: proliferation of Kit+ bone marrow cells in erythroid culture (CellTiter Glo); format: cell-based, mice; details: 5 days expansion; A1M at 5 and 10 μM; FIG. 4B
Experimental: (§1) FIG. 4: A1M treatment improves expansion of erythroid cells from a murine DBA model and patients. CD117 (Kit)+ bone marrow cells were treated with Doxycycline to induce Rps19 deficiency. Twenty four hours after Doxycycline administration, cells were treated with drugs interfering with iron or heme availability. The ATP measuring platform CellTiter Glo was used to monitor viable cells after 5 days of expansion. In A) a schematic picture of the drug screen is shown. B) Proliferation of bone marrow cells (as described in A) from Rps19 inducible mice treated with respective drug compounds interfering with iron or heme availability is presented. Shown is also a schematic picture of drug activity where A1M is shown to have intracellular effects by reducing unbound heme in erythroblast. The cells were cultured in erythroid promoting media for 5 days. Kruskal-Wallis non parametric test with Dunn's multiple comparisons test was used for statistical analysis, and genotypes were compared to respective control, separately. p-values: *≤005, **≤001, ***≤0001, ****≤00001. C) Concentration of free unbound intracellular heme in Kit+ bone marrow cells from the Rps19 deficient mouse expanded in erythroid culture with A1M or vehicle for 72 hours. Mann Whitney non parametric analysis was employed for statistical analysis within each genotype. D) Expansion of CD34+ erythroid precursors from peripheral blood of DBA patients with mutations in RPS19, RPL35a and RPS26, or healthy controls treated with A1M or vehicle in erythroid promoting media for 7 days. […]
(§2) The drugs administered 24 hours after Doxycycline administration were A1M (supplied by A1M Pharma AB, Sweden), N-methyl mesoporphyrin IX (AH Diagnostics, Denmark), Succinylacetone, hemin, Deferoxamine, Ferrostatin and N-acetyl-L-cystein and hemopexin (Sigma-Aldrich). Cell expansion 5 days after drug administration was measured using CellTiter Glo (Promega, US), which measures the number of viable and metabolically active cells in culture based on quantitation of the ATP present. Plates were read on Victor 3 Multilabel counter (PerkinElmer, US).

[2] = Solubility/stability and function of A1M mutation variants; format: physicochemical; details: mutated A1M variants
[3] = general background on A1M secreted into the blood stream; cited from earlier work
WT cells = assay: Drug screen: proliferation of Kit+ bone marrow cells in erythroid culture (CellTiter Glo); format: cell-based, mice; details: 5 days expansion; FIG. 4B
Experimental: as §1, §2

[4] = system: Rps19 deficient erythroid cells; assay: Free unbound intracellular heme in Kit+ bone marrow cells expanded in erythroid culture; format: cell-based, mouse; details: erythroid culture with A1M or vehicle for 72 hours; FIG. 4C
Experimental: as §1, with “genotype.” for “genotype. D) Expansion of CD34+ erythroid precursors from peripheral blood of DBA patients with mutations in RPS19, RPL35a and RPS26, or healthy controls treated with A1M or vehicle in erythroid promoting media for 7 days.”

bone marrow cells = assay: Bone marrow flow cytometry after 177Lu-DOTATATE exposure (radiation-induced damage); format: in vivo, BALB/c mice; details: 4 days
Experimental: (§3) Female BALB/c mice (Taconic, Denmark) at the age of 12 weeks were used in this study. Two groups (n=5-10) received a subcutaneous administration of either A1M (20 mg/kg) or vehicle buffer (10 mM Na-phosphate pH 7.4+0.15 M NaCl+12 mM histidine) followed by an intravenous (i.v.) injection, 30 minutes later, of ^177Lu-DOTATATE (150 MBq). A control group (n=5-10) received a subcutaneous administration of vehicle, followed by, 30 minutes after, an i.v. injections of NaCl. Animals were sacrificed 4 days post-injections.
After 4 days (post ^177Lu-DOTATATE administration), blood, for peripheral blood cell and reticulocyte count, was sampled from vena saphena, on non-anesthetized animals, in EDTA pre-coated vials (Microvette CB 300 K2E, Sarstedt, Nümbrecht, Germany) and placed on a rocking mixer in room temperature followed by analysis as described below. […]
Bone marrow cells were isolated by crushing femur in PBS containing 2% FCS (GIBCO, Waltham, Mass., USA) and passing them though a 70 um cell strainer to obtain single cell suspension. […] All experiments were performed on LSRFortessa (BD Biosciences) flow cytometry and analyzed with FlowJo software.
Bone marrow cellularity was counted from the single cell suspension using hematology analyzer SYSMEX KX-21 N.

peripheral blood cells = assay: Peripheral blood reticulocyte count after 177Lu-DOTATATE exposure; format: in vivo, BALB/c mice; details: A1M 20 mg/kg subcutaneous 30 minutes prior to 150 MBq 177Lu-DOTATATE i.v.; 4 days; FIG. 2B
Experimental: as §3
After 4 days (post ^177Lu-DOTATATE administration), blood, for peripheral blood cell and reticulocyte count, was sampled from vena saphena, on non-anesthetized animals, in EDTA pre-coated vials (Microvette CB 300 K2E, Sarstedt, Nümbrecht, Germany) and placed on a rocking mixer in room temperature followed by analysis as described below. Thereafter the animals were anaesthetized using isoflurane, sacrificed by cervical dislocation and femur (left and right) sampled and placed in PBS, pH 7.4 in a 24 well plate standing on wet ice.
Following collection of peripheral blood SYSMEX KX-21N hematology analyzer was used for determining Blood parameters. Reticulocyte count was determined using LSR Fortessa or Canto II flow cytometry using Retic-Count (BD Biosciences).

[5] = system: erythroid precursors from DBA patients; assay: Expansion of CD34+ erythroid precursors from peripheral blood (manual cell count); format: cell-based, human; details: 5 μM A1M every 2-3 days, 7-8 days; mutations in RPS19, RPS26, RPL35a; FIG. 4D
Experimental: as §1, with “genotype.” for “genotype. D) Expansion of CD34+ erythroid precursors from peripheral blood of DBA patients with mutations in RPS19, RPL35a and RPS26, or healthy controls treated with A1M or vehicle in erythroid promoting media for 7 days.”

[6] = system: cells from healthy subjects; assay: as above; format: cell-based, human; details: 5 μM A1M every 2-3 days, 7-8 days; FIG. 4D
Experimental: as §1, with “genotype.” for “genotype. D) Expansion of CD34+ erythroid precursors from peripheral blood of DBA patients with mutations in RPS19, RPL35a and RPS26, or healthy controls treated with A1M or vehicle in erythroid promoting media for 7 days.”

B1: hemopexin: mainly extracellular heme scavenger (Sigma-Aldrich) (protein, UniProt P02790 24-462, looked up)
Hemopexin: TPLPPTSAHGNVAEGETKPDPDVTERCSDGWSFDATTLDDNGTMLFFKGEFVWKSHKWDRELISERWKNFPSPVDAAFRQGHNSVFLIKGDKVWVYPPEKKEKGYPKLLQDEFPGIPSPLDAAVECHRGECQAEGVLFFQGDREWFWDLATGTMKERSWPAVGNCSSALRWLGRYYCFQGNQFLRFDPVRGEVPPRYPRDVRDYFMPCPGRGHGHRNGTGHGNSTHHGPEYMRCSPHLVLSALTSDNHGATYAFSGTHYWRLDTSRDGWHSWPIAHQWPQGPSAVDAAFSWEEKLYLVQGTQVYVFLTKGGYTLVSGYPKRLEKEVGTPHGIILDSVDAAFICPGSSRLHIMAGRRLWWLDLKSGAQATWTELPWPHEKVDGALCMEKSLGPNSCSANGPGLYLIHGPNLYCYSDVEKLNAAKALPQPQNVTSLLGCTH
proliferation of Rps19 deficient erythroid precursors [1]: no effect

B2: (M41K+R66H): A1M with point mutations M41K and R66H (protein, UniProt P02760 20-203, looked up, variant M41K R66H)
Alpha-1-microglobulin: GPVPTPPDNIQVQENFNISRIYGKWYNLAIGSTCPWLKKIKDRMTVSTLVLGEGATEAEISMTSTHWRKGVCEETSGAYEKTDTDGKFLYHKSKWNITMESYVVHTNYDEYAIFLTKKFSRHHGPTITAKLYGRAPQLRETLLQDFRVVAQGVGIPEDSIFTMADRGECVPGEQEPEPILIPRV
modifications: Alpha-1-microglobulin
solubility and/or stability and function [2]: increased solubility and/or stability with maintained function

B3: (M41K+N17,96D): A1M with point mutations M41K and N17,96D (protein, UniProt P02760 20-203, looked up, variant M41K N17D N96D)
Alpha-1-microglobulin: GPVPTPPDNIQVQENFDISRIYGKWYNLAIGSTCPWLKKIKDRMTVSTLVLGEGATEAEISMTSTRWRKGVCEETSGAYEKTDTDGKFLYHKSKWDITMESYVVHTNYDEYAIFLTKKFSRHHGPTITAKLYGRAPQLRETLLQDFRVVAQGVGIPEDSIFTMADRGECVPGEQEPEPILIPRV
modifications: Alpha-1-microglobulin
notes: A1M with point mutations M41K and N17,96D
solubility and/or stability and function [2]: increased solubility and/or stability with maintained function

B4: (M41K+R66H+N17,96D): A1M with point mutations M41K, R66H and N17,96D (protein, UniProt P02760 20-203, looked up, variant M41K R66H N17D N96D)
Alpha-1-microglobulin: GPVPTPPDNIQVQENFDISRIYGKWYNLAIGSTCPWLKKIKDRMTVSTLVLGEGATEAEISMTSTHWRKGVCEETSGAYEKTDTDGKFLYHKSKWDITMESYVVHTNYDEYAIFLTKKFSRHHGPTITAKLYGRAPQLRETLLQDFRVVAQGVGIPEDSIFTMADRGECVPGEQEPEPILIPRV
modifications: Alpha-1-microglobulin
notes: A1M with point mutations M41K, R66H and N17,96D
solubility and/or stability and function [2]: increased solubility and/or stability with maintained function

B5: (R66H+N17,96D): A1M with point mutations R66H and N17,96D; RMC-035 corresponds to this variant (protein, UniProt P02760 20-203, looked up, variant R66H N17D N96D)
Alpha-1-microglobulin: GPVPTPPDNIQVQENFDISRIYGKWYNLAIGSTCPWLKKIMDRMTVSTLVLGEGATEAEISMTSTHWRKGVCEETSGAYEKTDTDGKFLYHKSKWDITMESYVVHTNYDEYAIFLTKKFSRHHGPTITAKLYGRAPQLRETLLQDFRVVAQGVGIPEDSIFTMADRGECVPGEQEPEPILIPRV
modifications: Alpha-1-microglobulin RMC-035
solubility and/or stability and function [2]: increased solubility and/or stability with maintained function

B6: alpha-1-microglobulin (protein, listed as Homo sapiens)
chain: GPVPTPPDNIQVQENFDISRIYGKWYNLAIGSTCPWLKKIMDRMTVSTLVLGEGATEAEISMTSTHWRKGVCEETSGAYEKTDTDGKFLYHKSKWDITMESYVVHTNYDEYAIFLTKKFSRHHGPTITAKLYGRAPQLRETLLQDFRVVAQGVGIPEDSIFTMADRGECVPGEQEPEPILIPR
modifications: Wildtype human A1M, no mutations
notes: Recombinant human A1M, variant RMC-035 corresponding to A1M (R66H+N17,96D), supplied by A1M Pharma AB
T½ of transport across the vessel walls to the extravascular compartment [3]: 2 to 3 min | proliferation of WT cells (WT cells): No effect on proliferation | proliferation of Rps19 deficient erythroid precursors [1]: increased proliferation | level of unbound intracellular heme [4]: significantly reduce the level of unbound intracellular heme back to WT levels | percentage of viable reticulocytes in bone marrow (bone marrow cells; A1M 20 mg/kg subcutaneous 30 minutes prior to 150 MBq 177Lu-DOTATATE i.v., FIG. 2A): completely preserved reticulocyte population at the level of the non-radiation exposed control animals | protection of the proerythroblast population (bone marrow cells; A1M 20 mg/kg subcutaneous 30 minutes prior to 150 MBq 177Lu-DOTATATE, FIG. 3): displayed protection of the proerythroblast population | percentage of viable reticulocytes in peripheral blood (peripheral blood cells): completely preserved reticulocyte population at the level of the non-radiation exposed control animals | expansion of erythroid precursors from three DBA patients [5]: improved expansion | expansion of cells from healthy subjects [6]: no such trend was observed
